Assay results taken from US20090214534A1.

Key:
[1] = target: interleukin-1 type 1 receptor (UniProt P14778); assay: cell-based or functional assay
[2] = target: human serum albumin (human) (UniProt P02768); assay: sandwich ELISA, HSA-coated plate, control antibody at 1 µM, anti-FITC detection

Sequence of UniProt P14778 (P14778 18-569 limits assumed): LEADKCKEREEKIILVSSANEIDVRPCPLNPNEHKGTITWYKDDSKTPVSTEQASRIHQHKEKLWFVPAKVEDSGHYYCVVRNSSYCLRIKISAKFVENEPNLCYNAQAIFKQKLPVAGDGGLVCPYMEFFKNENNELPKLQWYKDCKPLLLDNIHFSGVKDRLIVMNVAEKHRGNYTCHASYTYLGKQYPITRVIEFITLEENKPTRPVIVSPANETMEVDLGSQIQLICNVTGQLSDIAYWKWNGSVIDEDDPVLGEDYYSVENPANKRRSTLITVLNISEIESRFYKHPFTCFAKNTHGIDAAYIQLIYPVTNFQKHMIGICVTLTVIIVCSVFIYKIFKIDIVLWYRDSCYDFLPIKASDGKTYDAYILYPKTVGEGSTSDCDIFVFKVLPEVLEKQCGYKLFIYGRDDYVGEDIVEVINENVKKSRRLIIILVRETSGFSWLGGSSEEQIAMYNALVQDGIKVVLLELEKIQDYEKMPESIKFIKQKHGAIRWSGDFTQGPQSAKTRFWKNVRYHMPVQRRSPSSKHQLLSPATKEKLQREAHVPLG

Row | ND50 (neutralizing dose 50) of IL-1-induced IL-8 secretion by MRC-5 cells [1] [nM] | OD600 [2] [OD600] | Substance
1 | 0.5 |  | recombinant human IL-1ra (from UniProt P18510 26-177) (ligand)
2 |  | 0.049 | FITC coupled antibody (negative control)
